Molecular target: PABP1;eIF4G1 (88-653) (Homo sapiens;Homo sapiens, UniProt P11940;Q04637 1-636;88-653, |)
Assay: EMSA

Sequence of PABP1;eIF4G1 (88-653) (P11940 whole entry, chain 1 of 2): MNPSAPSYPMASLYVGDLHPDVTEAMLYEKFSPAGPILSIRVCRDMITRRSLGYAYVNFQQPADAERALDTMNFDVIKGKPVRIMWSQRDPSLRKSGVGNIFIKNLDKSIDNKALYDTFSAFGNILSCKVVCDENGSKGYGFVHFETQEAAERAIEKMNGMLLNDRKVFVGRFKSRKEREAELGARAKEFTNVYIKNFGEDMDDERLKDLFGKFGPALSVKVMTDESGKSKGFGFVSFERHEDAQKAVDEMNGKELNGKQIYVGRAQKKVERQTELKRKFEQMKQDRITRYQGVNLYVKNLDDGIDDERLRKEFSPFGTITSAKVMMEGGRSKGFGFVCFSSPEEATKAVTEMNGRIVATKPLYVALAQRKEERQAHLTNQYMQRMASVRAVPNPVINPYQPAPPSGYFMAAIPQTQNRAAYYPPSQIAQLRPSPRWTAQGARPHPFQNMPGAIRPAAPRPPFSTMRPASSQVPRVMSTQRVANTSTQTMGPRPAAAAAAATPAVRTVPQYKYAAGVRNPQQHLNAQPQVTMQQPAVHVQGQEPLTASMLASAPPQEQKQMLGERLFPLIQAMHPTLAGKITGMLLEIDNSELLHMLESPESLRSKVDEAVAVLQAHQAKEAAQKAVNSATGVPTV
Sequence of PABP1;eIF4G1 (88-653) (Q04637 88-653, chain 2 of 2): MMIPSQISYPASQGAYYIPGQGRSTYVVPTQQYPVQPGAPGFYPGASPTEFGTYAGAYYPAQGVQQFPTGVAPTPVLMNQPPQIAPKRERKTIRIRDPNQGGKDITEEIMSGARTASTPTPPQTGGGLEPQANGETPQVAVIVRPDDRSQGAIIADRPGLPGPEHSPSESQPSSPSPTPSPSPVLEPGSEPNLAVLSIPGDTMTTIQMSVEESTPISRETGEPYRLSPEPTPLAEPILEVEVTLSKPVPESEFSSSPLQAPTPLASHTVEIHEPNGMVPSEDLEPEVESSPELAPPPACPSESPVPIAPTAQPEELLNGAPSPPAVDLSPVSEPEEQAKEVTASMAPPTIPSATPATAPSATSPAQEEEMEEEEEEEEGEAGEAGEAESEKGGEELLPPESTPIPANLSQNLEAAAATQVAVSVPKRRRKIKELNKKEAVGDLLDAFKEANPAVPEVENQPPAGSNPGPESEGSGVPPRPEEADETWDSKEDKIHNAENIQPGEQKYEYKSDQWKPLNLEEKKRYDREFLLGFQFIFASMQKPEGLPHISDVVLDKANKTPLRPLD

Binder: AAAAAAAAAAAAAAAAAA (ssRNA) [Poly(A)18]
- binding result: binds
